The source of these data is US20250296971A1, “GASTRIC INHIBITORY PEPTIDE RECEPTOR LIGANDS” (priority 2021, published 2025).

*1 amine or outer side, *2 acyl side, *3 side chain or, on linkers, in order; H or OH if unused. Where a SMILES comes first, the peptide text is derived from it. Bridges are numbered along the chain shown (N, C = ends). Primed or numbered codes have the meaning given here. Where no end group is shown, it is not given here. Side-chain parts run from the residue outwards. [ ]: non-standard residue; d: D form. The star is where a group is joined. Ttds = 1,13-diamino-4,7,10-trioxatridecan-succinamic acid, NCCCOCCOCCOCCCNC(=O)CCC(=O)*; NH(1-deoxy-D-glucityl) = OC[C@@H](O)[C@@H](O)[C@H](O)[C@@H](O)CN*; APAc″ = 4-amino-1-carboxymethylpiperidine, NC1CCN(CC(=O)*)CC1; Pro(trans-4-NH2) = O=C([C@@H]1C[C@@H](N[*:3])CN1[*:1])[*:2]; DOTA = O=C(O)CN1CCN(CC(=O)O)CCN(CC(=O)*)CCN(CC(=O)O)CC1; Trp(5-Cl) = N[C@@H](Cc1c[nH]c2ccc(Cl)cc12)C(=O)O; Pyridine(2,6-diCH2) = c1cc(C[*:1])nc(C[*:2])c1; AETO = 2-aminoethane-1-thiol oxidized; mXylylene = c1cc(C[*:1])cc(C[*:2])c1; Glutaryl = O=C(CCCC(=O)[*:2])[*:1]; Hyp = O=C(O)[C@@H]1C[C@@H](O)CN1; X1 = O=C(CN1CCC(N[*:1])CC1)[*:2]; Cysteamide = C(CS[*:3])N[*:1]; hLeu = CC(C)CC[C@H](N)C(=O)O; 2Lut(3) = 2,6-lutidylidene; 3Lut = 3,5-lutidylidene; Api = NC1(C(=O)O)CCNCC1; Thp = NC1(C(=O)O)CCOCC1; Dap = NC[C@H](N)C(=O)O; Aib = CC(C)(N)C(=O)O

The target of assay [1] is T1, human GIP receptor (bioGIPR) (Homo sapiens, UniProt P48546).
T1 construct: Biotinylate extracellular of the human GIP receptor (bioGIPR, Proteros biostructures GmbH, lot #02/2b); purchased Proteros biostructures GmbH lot #02/2b
T1 sequence (P48546 22-138 limits assumed): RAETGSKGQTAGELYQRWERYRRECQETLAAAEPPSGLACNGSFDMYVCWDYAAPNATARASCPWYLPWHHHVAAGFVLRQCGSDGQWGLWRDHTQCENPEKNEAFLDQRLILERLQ
As to the kind of experiment: Surface plasmon resonance (SPR) based binding assay. To be noted: Single Cycle Kinetic mode, 25° C.; for t1/2 Category: SPR dissociation half-life; for Kd: SPR, 1:1 Langmuir binding model, read-out: pKD Category (converted). As to the method: Surface plasmon resonance (SPR) studies were performed using a Biacore™ T200 SPR system. Briefly, polarized light is directed towards a gold-labeled sensor surface, and minimum intensity reflected light is detected. The angle of reflected light changes as molecules bind and dissociate.
Biotinylate extracellular of the human GIP receptor (bioGIPR, Proteros biostructures GmbH, lot #02/2b) was captured on a biotin capture chip (Biotin CAPture Kit, Series S, GE Healthcare, Cat #28-9202-34). bioGIPR was diluted in Running Buffer (HBST from Xantec Analytics; […], 0.05% Tween20, 0.1% DMSO) to a final concentration 100 nM and than flushed over the Fc-capture chip to immobilized ˜3500 RUs.
Stock solutions of test compounds were prepared by dissolving each compound in DMSO. DMSO stock solution were diluted 1:1000 in Running Buffer without DMSO. Further sequential dilutions were made with Running Buffer containing 0.1% DMSO. SPR binding analyses were performed in Single Cycle Kinetic (SCK) mode at 25° C. Flow cell without immobilized bioGIPR served as reference flowcell. After each SCK run, bioGIRP and the Biotin Capture Reagent was removed with Regeneration Solution (6 M Guanidium, 0.75 M NaOH).
In between every three SCK measurements, a blank run with Running Buffer instead of test compound was included to correct for baseline drifts (double blanking method).
For each test compound, SPR raw data in the form of resonance units (RU) were plotted as sensorgrams using the Biacore™ T200 control software. The signal from the blank sensorgram was subtracted from that of the test compound sensorgram (blank corrected). The blank corrected sensorgram was corrected for baseline drift by subtracting the sensorgram of a SCK run without the test compound (running buffer only). The association rate (kon), dissociation rate (koff), dissociation constant (KD), and t1/2 were calculated from blank corrected SPR data using the 1:1 Langmuir binding model from the Biacore™ T200 evaluation software. Raw data and fit results were imported as text files in IDBS. The pKD value (negative decadic logarithm of dissociation constant) was calculated in the IDBS excel template.
(In general: SPR reads the build-up and loss of mass on a sensor chip optically.)

Assay [2] concerns the target T2, GIPR (CHO-K1-hGIPR cells) (Homo sapiens, UniProt P48546).
T2 construct: host or cells: CHO-K1
T2 sequence (P48546 22-466): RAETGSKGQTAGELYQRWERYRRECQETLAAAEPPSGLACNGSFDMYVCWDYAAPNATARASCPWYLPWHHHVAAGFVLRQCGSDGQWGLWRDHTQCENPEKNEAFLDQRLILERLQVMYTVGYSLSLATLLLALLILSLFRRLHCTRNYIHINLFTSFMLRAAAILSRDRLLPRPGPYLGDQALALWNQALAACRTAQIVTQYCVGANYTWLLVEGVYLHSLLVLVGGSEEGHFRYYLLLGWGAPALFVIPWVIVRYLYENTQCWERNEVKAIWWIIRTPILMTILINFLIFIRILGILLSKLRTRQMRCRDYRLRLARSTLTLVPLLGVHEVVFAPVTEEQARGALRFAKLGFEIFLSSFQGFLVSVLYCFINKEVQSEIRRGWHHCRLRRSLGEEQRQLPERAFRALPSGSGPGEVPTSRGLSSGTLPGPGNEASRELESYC
As to the kind of experiment: FACS binding assay. To be noted: competition with 20 nM GIP-057, 4° C., 1 hour, read-out: pIC50 Category (converted). In outline: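 Peptide binding read by flow cytometry as APC-channel median fluorescence, fitted with a four-parameter logistic to yield EC50 or IC50. Cells were hGIPR-transfected CHO-K1 in PBS with 1% FCS, detected with 1 μg/mL APC-streptavidin, 30 min on ice.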
A general note: A flow cytometer gives signals particle by particle.

Assay [3] deals with human Gastric Inhibitory Peptide Receptor (human) (UniProt P48546). As to the kind of experiment: FACS competition with GIP-057 on CHO-K1-hGIPR cells; pIC50 category A: >8.0.

Take `CC[C@H](C)[C@@H]1NC(=O)[C@H](CC(C)C)NC(=O)C2(CCOCC2)NC(=O)[C@@H](NC(=O)[C@@H](CC(C)C)NC(=O)[C@H](CCC(=O)O)NC(=O)[C@@H]2C[C@@H](O)CN2C(=O)[C@H](Cc2c[nH]c3ccc(Cl)cc23)NC(=O)[C@H](Cc2c[nH]c3ccccc23)NC(=O)[C@H](CC(=O)O)NC(=O)CCCC(=O)NC[C@H](O)[C@@H](O)[C@H](O)[C@H](O)CO)CSCc2cccc(n2)CSC[C@@H](C(=O)NC2CCN(CC(=O)N[C@H](CCC(=O)NC[C@H](O)[C@@H](O)[C@H](O)[C@H](O)CO)C(=O)N[C@@H](CCCCNC(=O)CN3CCN(CC(=O)O)CCN(CC(=O)O)CCN(CC(=O)O)CC3)C(N)=O)CC2)NC1=O` [GIP-004, AGLU-Glutar-Asp-Trp-5Clw-Hyp-Glu-leu-[Cys(2Lut)-Thp-Leu-Ile-Cys]-APAc-glu(AGLU)-Lys(DOTA)-NH2] ({NH(1-deoxy-D-glucityl)-Glutaryl}-DW[Trp(5-Cl)][Hyp]E[dL]C[Thp]LIC[X1][dE](NH(1-deoxy-D-glucityl))K(DOTA)-NH2; linker 7-11 via Pyridine(2,6-diCH2)): in assay [1], the “t1/2 Category” value is reported as “A (t1/2 values>15 min)” and the Kd was less than 1 nM. In assay [2], the IC50 is less than 10 nM.

On to `CC[C@H](C)[C@@H]1NC(=O)[C@H](CC(C)C)NC(=O)C2(CCN(C(=O)CN3CCN(CC(=O)O)CCN(CC(=O)O)CCN(CC(=O)O)CC3)CC2)NC(=O)[C@@H](NC(=O)[C@@H](CC(C)C)NC(=O)[C@H](CCC(=O)O)NC(=O)[C@@H]2C[C@@H](NC(=O)CCCC(=O)NC[C@H](O)[C@@H](O)[C@H](O)[C@H](O)CO)CN2C(=O)[C@H](Cc2c[nH]c3ccc(Cl)cc23)NC(=O)[C@H](Cc2c[nH]c3ccccc23)NC(=O)[C@H](CC(=O)O)NC(=O)CN2CCC(NC(=O)CCCC(=O)NC[C@H](O)[C@@H](O)[C@H](O)[C@H](O)CO)CC2)CSCc2cccc(n2)CSC[C@@H](C(=O)NC2CCN(CC(=O)N[C@H](CCC(=O)NC[C@H](O)[C@@H](O)[C@H](O)[C@H](O)CO)C(N)=O)CC2)NC1=O` [GIP-006, AGLU-Glutar-APAc-Asp-Trp-5Clw-Tap(AGLU-Glutar)-Glu-leu-[Cys(2Lut)-Apc(DOTA)-Leu-Ile-Cys]-APAc-glu(AGLU)-NH2] ({NH(1-deoxy-D-glucityl)-Glutaryl}-[X1]DW[Trp(5-Cl)][Pro(trans-4-NH2)]([Glutaryl-NH(1-deoxy-D-glucityl)])E[dL]C[Api](DOTA)LIC[X1][dE](NH(1-deoxy-D-glucityl))-NH2; linker 8-12 via Pyridine(2,6-diCH2)), for which, in assay [1], the “t1/2 Category” value is reported as “A (t1/2 values>15 min)” and the Kd was less than 1 nM. In addition, in assay [2], the IC50 was less than 10 nM.

B1: DOTA-Ttds-Asp-Trp-5Clw-Pro-Glu-leu-[Cys(3MeBn)-Apc-Leu-Ile-AET] (peptide)
peptide: {DOTA-Ttds}-DW[Trp(5-Cl)]PE[dL]C[Api]LI[Cysteamide]
modifications: linker (positions not given here) via mXylylene; not fully specified (bridges); printed as DOTA-Ttds-Asp-Trp-5Clw-Pro-Glu-leu-[Cys(3MeBn)-Apc-Leu-Ile-AET]
Take B1: the pIC50 in assay [3] was more than 8 pic50.

As for DWXPEXCXLI (N-term DOTA-Ttds; 5Clw; leu (D-Leu); cycle [Cys(3MeBn)..en]; Aib) [DOTA-Ttds-Asp-Trp-5Clw-Pro-Glu-leu-[Cys(3MeBn)-Aib-Leu-Ile-en]], the pIC50 in assay [3] is more than 8 pic50.

B2: DOTA-Ttds-Asp-Trp-5Clw-Pro-Glu-leu-[Cys(2Lut)-Aib-Leu-Ile-AET] (peptide)
peptide: {DOTA-Ttds}-DW[Trp(5-Cl)]PE[dL]C[Aib]LI[Cysteamide]
modifications: linker (positions not given here) via 2Lut(3); not fully specified (bridges); printed as DOTA-Ttds-Asp-Trp-5Clw-Pro-Glu-leu-[Cys(2Lut)-Aib-Leu-Ile-AET]
In assay [3], B2 returned a pIC50 of more than 8 pic50.

For {DOTA-APAc″}-DW[Trp(5-Cl)]PE[dL]C[Aib]LI[Cysteamide] (linker 7-11 via mXylylene) [DOTA-APAc-Asp-Trp-5Clw-Pro-Glu-leu-[Cys(3MeBn)-Aib-Leu-Ile-AET]], the pIC50 in assay [3] was more than 8 pic50.

B3: DOTA-Ttds-Asp-Trp-5Clw-Pro-Glu-leu-[Cys(3MeBn)-Thp-Leu-Ile-AET] (peptide)
peptide: {DOTA-Ttds}-DW[Trp(5-Cl)]PE[dL]C[Thp]LI[Cysteamide]
modifications: linker (positions not given here) via mXylylene; not fully specified (bridges); printed as DOTA-Ttds-Asp-Trp-5Clw-Pro-Glu-leu-[Cys(3MeBn)-Thp-Leu-Ile-AET]
In turn, B3 had a pIC50 in assay [3] of more than 8 pic50.

B4: DOTA-Ttds-Asp-Trp-5Clw-Hyp-Glu-leu-[Cys(3MeBn)-Aib-Leu-Ile-AET] (peptide)
peptide: {DOTA-Ttds}-DW[Trp(5-Cl)][Hyp]E[dL]C[Aib]LI[Cysteamide]
modifications: linker (positions not given here) via mXylylene; not fully specified (bridges); printed as DOTA-Ttds-Asp-Trp-5Clw-Hyp-Glu-leu-[Cys(3MeBn)-Aib-Leu-Ile-AET]
B4 came in with a pIC50 in assay [3] of more than 8 pic50.

B5: DOTA-Ttds-Asp-Trp-5Clw-Pro-Glu-leu-[Dap(3MeBn)-Aib-Leu-Ile-AET] (peptide)
peptide: {DOTA-Ttds}-DW[Trp(5-Cl)]PE[dL][Dap][Aib]LI[Cysteamide]
modifications: linker (positions not given here) via mXylylene; not fully specified (bridges); printed as DOTA-Ttds-Asp-Trp-5Clw-Pro-Glu-leu-[Dap(3MeBn)-Aib-Leu-Ile-AET]
B5 had a pIC50 in assay [3] of more than 8 pic50.

In assay [3], {DOTA-Ttds}-DW[Trp(5-Cl)]PE[dL][Dap][Aib]LI[AETO] (linker (positions not given here) via mXylylene; not fully specified (bridges)) [DOTA-Ttds-Asp-Trp-5Clw-Pro-Glu-leu-[Dap(3MeBn)-Aib-Leu-Ile-AETO]] came in with a pIC50 of more than 8 pic50.

B6: DOTA-Ttds-Asp-Trp-5Clw-Pro-Glu-leu-[Cys(3Lut)-Aib-Leu-Ile-AET] (peptide)
peptide: {DOTA-Ttds}-DW[Trp(5-Cl)]PE[dL]C[Aib]LI[Cysteamide]
modifications: linker (positions not given here) via 3Lut; not fully specified (bridges); printed as DOTA-Ttds-Asp-Trp-5Clw-Pro-Glu-leu-[Cys(3Lut)-Aib-Leu-Ile-AET]
For B6, the pIC50 in assay [3] was more than 8 pic50.

B7: DOTA-Ttds-Asp-Trp-5Clw-Pro-Glu-leu-[Cys(3MeBn)-Aib-Hle-Ile-AET] (peptide)
peptide: {DOTA-Ttds}-DW[Trp(5-Cl)]PE[dL]C[Aib][hLeu]I[Cysteamide]
modifications: linker (positions not given here) via mXylylene; not fully specified (bridges); printed as DOTA-Ttds-Asp-Trp-5Clw-Pro-Glu-leu-[Cys(3MeBn)-Aib-Hle-Ile-AET]
Molecule B7 gave a pIC50 in assay [3] of more than 8 pic50.
